The results in this text go back to patent publication US20140147439A1 (NVIP, published 2014).

This test deals with T1, human complement C1q (from human serum) (human, UniProt P02745 23-245; P02746 28-253; P02747 29-245).
T1 construct: Native C1q in human serum diluted 1/100
Briefly: ELISA: antibody captured on NGF-coated plate, incubated with human serum, bound C1q detected with sheep anti-C1q-HRP, absorbance at 450 nm.

T1 sequence (P02745 23-245 limits assumed, chain 1 of 3): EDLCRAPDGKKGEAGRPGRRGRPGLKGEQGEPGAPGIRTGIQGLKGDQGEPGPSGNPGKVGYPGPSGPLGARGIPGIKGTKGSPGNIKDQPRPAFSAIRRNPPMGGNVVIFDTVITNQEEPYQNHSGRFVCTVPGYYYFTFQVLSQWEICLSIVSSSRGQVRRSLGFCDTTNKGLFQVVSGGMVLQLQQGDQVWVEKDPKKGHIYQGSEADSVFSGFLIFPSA
T1 sequence (P02746 28-253 limits assumed, chain 2 of 3): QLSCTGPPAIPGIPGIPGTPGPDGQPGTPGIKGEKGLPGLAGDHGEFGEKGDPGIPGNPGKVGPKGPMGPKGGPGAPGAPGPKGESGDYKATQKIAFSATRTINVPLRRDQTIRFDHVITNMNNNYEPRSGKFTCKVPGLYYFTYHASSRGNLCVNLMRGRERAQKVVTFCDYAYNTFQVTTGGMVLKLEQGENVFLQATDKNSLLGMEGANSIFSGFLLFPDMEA
T1 sequence (P02747 29-245 limits assumed, chain 3 of 3): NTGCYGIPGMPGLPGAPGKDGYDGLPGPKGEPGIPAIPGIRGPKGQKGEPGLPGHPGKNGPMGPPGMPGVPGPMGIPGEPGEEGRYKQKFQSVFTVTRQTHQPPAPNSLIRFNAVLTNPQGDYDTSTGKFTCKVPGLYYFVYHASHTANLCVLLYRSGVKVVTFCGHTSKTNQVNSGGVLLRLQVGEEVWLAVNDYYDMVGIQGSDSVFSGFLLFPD
Experimental: The plates were washed and then incubated with human serum and bound complement C1q was measured by binding of anti-human C1q polyclonal antibody HRP and developed as above.
Plates were coated with 100 μl/well of 5 μg/ml mouse NGF and blocked with 5% BSA/PBS. […] The plates were washed and incubated for 1 hour at room temperature with 100 μl/well of human serum diluted 1/100 in veronal buffered saline containing 0.5 mM MgCl₂, 2 mM CaCl₂, 0.05% Tween-20, 0.1% gelatin and 0.5% BSA. After washing, plates were incubated with 100 μl of a 1/800 dilution of sheep anti-C1q-HRP (Serotec) in PBS/1% BSA. After washing, plates were developed by the addition of 100 μl TMB substrate (Thermo Scientific). Development was stopped by the addition of 100 μl of 2NH₂SO₄ and absorbance read at 450 nm.

B1: felinised anti-NGF monoclonal antibody (heavy chain SEQ ID NO:6, light chain SEQ ID NO:5) (antibody, IgG2)
heavy: QVQLVESGGDLVQPGGSLRLTCAASGFSLTNNNVNWVRQAPGKGLEWMGGVWAGGATDYNSALKGRFTISRDNAKNTLYLQMNSLKTEDTATYYCARDGGYSSSTLYAMDAWGQGTLVTVSSASTTAPSVFPLAPSCGTTSGATVALACLVLGYFPEPVTVSWNSGALTSGVHTFPAVLQASGLYSLSSMVTVPSSRWLSDTFTCNVAHPPSNTKVDKTVRKTDHPPGPKPCDCPKCPPPEMLGGPSIFIFPPKPKDTLSISRTPEVTCLVVDLGPDDSDVQITWFVDNTQVYTAKTSPREEQFNSTYRVVSVLPILHQDWLKGKEFKCKVNSKSLPSPIERTISKAKGQPHEPQVYVLPPAQEELSRNKVSVTCLIKSFHPPDIAVEWEITGQPEPENNYRTTPPQLDSDGTYFVYSKLSVDRSHWQRGNTYTCSVSHEALHSHHTQKSLTQSPGK
light: DIVMTQTPLSLSVTPGEPASISCRASEDIYNALAWYLQKPGQSPRRLIYNTDTLHTGVPDRFSGSGSGTDFTLRISRVEADDVGVYFCQHYFHYPRTFGPGTKLEIKRSDAQPSVFLFQPSLDELHTGSASIVCILNDFYPKEVNVKWKVDGVVQTKASKESTTEQNSKDSTYSLSSTLTMSRTEYQSHEKFSCEVTHKSLASTLVKSFNRSECQRE
notes: Felinised alphaD11 variable domains with a feline HC2 (IgG2) heavy chain constant region and a feline kappa constant domain; also called felinised antibody; felinised anti-NGF MAb
In the case of B1, the binding result was “no binding (tested: human serum diluted 1/100)”.
